The values that follow come from patent US5871732.

Assay [1] concerns the target recombinant soluble CD4 (human CD4 AA1-AA375) (human) (UniProt P01730). Briefly: RIA, immobilised antibody; 125I-rsCD4 preincubated with the soluble competitor OKT4A.
Assay [2] has as its target CD4-V1 polypeptide (AA1-AA113 and/or AA1-AA111 of human CD4) (human) (UniProt P01730). Briefly: RIA, antibody captured on goat anti-mouse IgG; CD4-V1 (5 µg/ml) competing with 125I-rsCD4.
In assay [3] the target is CD4-V1V2 polypeptide (AA1-AA180 of human CD4) (human) (UniProt P01730). Briefly: RIA, antibody captured on goat anti-mouse IgG; CD4-V1V2 (5 µg/ml) competing with 125I-rsCD4.
Assay [4] has as its target recombinant soluble CD4 (human CD4 AA1-AA375) (human) (UniProt P01730). In words: RIA, immobilised antibody; 125I-rsCD4 preincubated with the soluble competitor Leu3A.
The target is the same in assay [5]. In words: RIA, immobilised antibody; 125I-rsCD4 preincubated with the competitor HIV r-gp120 (2.5 µg/ml).
Assay [6] has the same target. Briefly: RIA, immobilised antibody; 125I-rsCD4 preincubated with the soluble competitor OKT4.
In assay [7] the target is mouse/human substitution mutant of rsCD4 at AA165 (V2) (human) (UniProt P01730). Briefly: mutant rsCD4 (1 µg/ml) as competitor of OKT4 binding to CD4+ cells.
The target in assay [8] is mouse/human substitution mutant of rsCD4 at AA127-AA134 (V2) (human) (UniProt P01730). The description is as above.
Assay [9] has as its target mouse/human substitution mutant of rsCD4 at AA240-AA252 (V3) (human) (UniProt P01730). Described as above.
The target in assay [10] is mouse/human substitution mutant of rsCD4 at AA121-AA124 (V2) (human) (UniProt P01730). Described as above.
Assay [11] deals with mouse/human substitution mutant of rsCD4 at AA220-AA226 (V3) (human) (UniProt P01730). The assay is described as above.
The target in assay [12] is mouse/human substitution mutant of rsCD4 at AA60 (V1) (human) (UniProt P01730). The description is as above.
The target of assay [13] is recombinant soluble CD4 (human CD4 AA1-AA375) (human) (UniProt P01730). Briefly: RIA, 125I-rsCD4 preincubated with the soluble antibody; competitor: immobilised 5A8.
For assay [14], the target named is human CD4 displayed on the surface of CD4+ cells (human) (UniProt P01730).

Take “OKT4A, CD4 V1-specific anti-CD4 mouse monoclonal antibody (Ortho Diagnostic Systems)”: the % Inhibition rsCD4 Binding By OKT4A in assay [1] was found to be 68.5%. Moreover, the CD4-V1 % Inhibition of rsCD4 Binding in assay [2] was determined as 87.3%. In addition, the CD4-V1V2 % Inhibition of rsCD4 Binding in assay [3] is 95.5%. The % Inhibition rsCD4 Binding By Leu 3A in assay [4] was determined as 62%. The HIV r-gp120 % Inhibition rsCD4 Binding in assay [5] was determined as 66.1%. Also, in [6], the % Inhibition rsCD4 Binding By OKT4 was -26.8%.
Take “OKT4, CD4 V3V4-specific anti-CD4 mouse monoclonal antibody (Ortho Diagnostic Systems)”: the % Inhibition rsCD4 Binding By OKT4A in [1] was determined as 3.6%. The % blocking of OKT4 binding to CD4+ cells in [7], in [8], in assay [9], in assay [10], in assay [11] and in [12] was 60% in each case. Besides, the % Inhibition rsCD4 Binding in assay [13] is 4%. Moreover, the CD4-V1 % Inhibition of rsCD4 Binding in [2] was -5.5%. In assay [3], this substance gave a CD4-V1V2 % Inhibition of rsCD4 Binding of 14.4%. Further, the % Inhibition rsCD4 Binding By Leu 3A in [4] amounted to 8.4%. The HIV r-gp120 % Inhibition rsCD4 Binding in assay [5] was -8.2%. In assay [6], the % Inhibition rsCD4 Binding By OKT4 was 91.3%.
Consider “Leu3A, CD4 V1-specific monoclonal antibody (Becton Dickinson)”, for which the % Inhibition rsCD4 Binding By OKT4A in assay [1] came to 73.9%. The % Inhibition rsCD4 Binding in assay [13] turned out to be 0%. The CD4-V1 % Inhibition of rsCD4 Binding in assay [2] was 88.2%. The CD4-V1V2 % Inhibition of rsCD4 Binding in assay [3] was found to be 94%. The % Inhibition rsCD4 Binding By Leu 3A in assay [4] was 85.8%. In assay [14], this substance registered a concentration inhibiting syncytia formation 50% of 0.02 µg/mL. Moreover, the HIV r-gp120 % Inhibition rsCD4 Binding in assay [5] was 85.1%. Further, the % Inhibition rsCD4 Binding By OKT4 in assay [6] is -10.3%.
